Data reported in US20140005125A1 (Molecular Partners, published 2014).

Assays:
[1] = target: T1, Recombinant human PDGF-BB (human, UniProt P01127 82-190); test: receptor competition ELISA: DARPin preincubated with PDGF-BB, free PDGF-BB captured on coated PDGFRbeta/Fc; mean IC50
T1 construct: For SPR it was chemically biotinylated on primary amines and captured on neutravidin; also called PDGF-BB (human); Reliatech 200-055
Procedure: (§1) The potency of PEGylated anti-PDGF-BB DARPins to inhibit the binding of human PDGF-BB to its receptor PDGFRbeta was determined in a in a receptor competition ELISA (based on PDGF-BB Quantikine, R&D Systems). PDGFRbeta/Fc chimera has been precoated on a microplate. The DARPins were preincubated in assay diluent from the PDGF-BB Quantikine kit (R&D Systems) with a defined amount of PDGF-BB and incubated at room temperature for 2 hours with shaking at 750 rpm. These preincubation mixtures were then transferred into the precoated wells and any PDGF-BB that is not blocked by the DARPins was bound by the immobilized receptor. After washing away any unbound substances, a horse radish peroxidase-linked polyclonal antibody specific for PDGF-BB was added to the wells. Following a wash to remove any unbound antibody-enzyme reagent, a substrate solution was added to the wells and color was developing in proportion to the amount of PDGF-BB bound. The color development was stopped and the intensity of the color was measured at […]. Example titration curves are given for a set of DARPins in FIG. 2. IC₅₀ values were calculated from such titration curves obtained as described above using Graph Pad Prism software and standard procedures known to the person skilled in the art.

[2] = target: T2, Recombinant murine PDGF-BB (mouse, UniProt P31240 82-190, limits assumed); test: SPR (ProteOn), biotinylated PDGF-BB on neutravidin chip, DARPin injected; Kd from on- and off-rates
T2 construct: For SPR chemically biotinylated on primary amines and captured on neutravidin; also called mouse PDGF-BB; PDGF-BB (mouse)
Procedure: (§2) Biotinylated PDGF-BB molecules from human and mouse were immobilized in a flow cell through binding to coated […] and the interaction with various selected DARPins was analyzed.
(§3) SPR was measured using a ProteOn instrument (BioRad) and measurement was performed according standard procedures known to the person skilled in the art. The running buffer was PBS, pH 7.4, containing 0.005% Tween 20®. Neutravidin was covalently immobilized on a GLC chip (BioRad) to a level of about 8000 resonance units (RU). Immobilization of PDGF-BB on the neutravidin coated chip was then performed. The interaction of DARPin PDGF-BB was then measured by injecting 100 μl running buffer (PBS containing 0.005% Tween®) containing serial dilutions of DARPins of concentration of […] (on-rate measurement), followed by a running buffer flow for between 10 minutes and up to 3 hours at a constant flow rate of 30 μl/min (off-rate measurement). The signals (i.e. resonance unit (RU) values) of an uncoated reference cell and a reference injection (i.e. injection of running buffer only) were subtracted from the RU traces obtained after injection of […] (double-referencing). From the SRP traces obtained from the on-rate and off-rate measurements the on- and off-rate of the corresponding DARPin PDGF-BB interaction can be determined.
(§4) Dissociation constants (Kd) were calculated from the estimated on- and off-rates using standard procedures known to the person skilled in the art.

[3] = target: T1, Recombinant human PDGF-BB; test: as above
Procedure: as §2, §3, §4

[4] = target: T1, Recombinant human PDGF-BB; test: cell-based or functional assay
[5] = target: T1, Recombinant human PDGF-BB; test: receptor competition ELISA (PDGFRbeta), distinct single experiment of FIG. 2
Procedure: The inhibition of the binding of PDGF-BB to PDGFRbeta by various concentrations of DARPins with specificity for PDGF-BB and the corresponding fitted inhibition curves are shown for a distinct single experiment. The IC₅₀ values were then calculated to be about 20 and 18 pM for the DARPins #50 (D1) and #28 (D2), respectively. OD, optical density at 450 nm; C, concentration of DARPins in pM. The X axis is shown in logarithmic scale. See below for the definitions of DARPin #50 and 28.
as §1, with “After washing away any unbound substances, a horse radish peroxidase-linked polyclonal antibody specific for PDGF-BB was added to the wells. Following a wash to remove any unbound antibody-enzyme reagent, a substrate solution was added to the wells and color was developing in proportion to the amount of PDGF-BB bound.” left out, “Example titration curves are given for a set of DARPins in FIG. 2.” left out

T2 sequence (P31240 82-190 limits assumed): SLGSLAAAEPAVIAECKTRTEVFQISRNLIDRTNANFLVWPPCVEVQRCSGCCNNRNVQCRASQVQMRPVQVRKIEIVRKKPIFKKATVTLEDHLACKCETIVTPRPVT
T1 sequence (P01127 82-190 limits assumed): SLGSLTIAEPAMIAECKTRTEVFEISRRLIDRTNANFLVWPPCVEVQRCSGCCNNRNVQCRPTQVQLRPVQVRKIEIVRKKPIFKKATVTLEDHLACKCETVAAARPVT

B1: DARPin #44 (designed binder)
chain: MRGSHHHHHHGSDLGAKLLHAAVVGQDDEVRILLAAGADVNAKDKSGHTPLHLAAYSGHLEIVEVLLKAGADVNAKDQEGTTPLHFAASVGHLEIVEVLLKAGADVNAQDHYGATPADLAALIGHEDIAEVLQKLN
B1 was tested, and the IC50 [1] was 0.13 nM, the Kd [2] was 0.0902 nM and the Kd [3] was 0.0768 nM.

B2: DARPin #24 (designed binder)
chain: MRGSHHHHHHGSDLGKKLLEAARAGQDDEVRELLKAGADVNAKDEEGTTPLHYAAVWGHLEIVEVLLKAGADVNAQDIYGATPADLAALVGHEDIAEVLQKLN
B2 was tested, and the IC50 [1] was 0.015 nM, the Kd [3] was 0.0301 nM and the “IC50 of inhibition of NIH-3T3 cell proliferation (WST-1)” value (“IC50 of inhibition … (WST-1)” below) [4] was 1.4 nM.

B3: DARPin #28 (designed binder)
chain: MRGSHHHHHHGSDLGKKLLEAARAGQDDEVRILMANGADVNAKDEEGTTPLHYAAVWGHLEIVEVLLKAGADVNAQDIYGATPADLAALVGHEDIAEVLQKLN
In the case of B3, the IC50 [1] is reported as 0.016 nM, the IC50 [5] is reported as ~0.018 nM and the Kd [3] is reported as 0.0171 nM. The “IC50 of inhibition … (WST-1)” value [4] was 1.6 nM.

B4: DARPin #30 (designed binder)
chain: MRGSHHHHHHGSDLGKKLLEAARAGQDDEVRELLKAGADVNAKDEEGTTPLHYAAVYGHLEIVEVLLKAGADVNAQDIYGATPADLAALVGHEDIAEVLQKLN
For B4, the IC50 [1] was 0.49 nM, the Kd [3] was 0.11 nM and the “IC50 of inhibition … (WST-1)” value [4] was 3.2 nM.

B5: DARPin #38 (designed binder)
chain: MRGSHHHHHHGSDLGDKLLWAAKHGQDDEVRILLAAGADVNAKDDEGSTPLHYAAVWGHLETVEVLLKAGADVNAQDIWGATPADLAALLGHEDIAEVLQKLN
Work on B5 yielded an IC50 [1] of 0.085 nM, a Kd [2] of 0.0583 nM and a Kd [3] of 0.0941 nM.

B6: DARPin #34 (designed binder)
chain: MRGSHHHHHHGSDLGDKLLQSDLGRKLLHAARSGQDDEVRILLAAGADVNAKDEDGTTPLHYAAAWGHLEIVEVLLKAGADVNAQDIYGATPADLAAYIGHEDIAEVLQKLN
B6 was tested, and the IC50 [1] was 0.21 nM, the Kd [2] was 0.0592 nM and the Kd [3] was 0.0775 nM.

B7: DARPin #49 (designed binder)
chain: MRGSHHHHHHGSDLGKKLLEAARAGQDDEVRILMANGADVNAQDLNGQTPLHLAADIGHLEIVEVLLKHGADVNAQDYAGSTPLRLAAWAGHLEIVEVLLKNGADVNANDYFGYTPLHLAAYFGHLEIVDVLLKHGADVNAQDKFGKTAFDISIDNGNEDLAEILQKLN
B7 gave an IC50 [1] of 0.066 nM, a Kd [2] of 0.102 nM and a Kd [3] of 0.0769 nM. For the same binder, the “IC50 of inhibition … (WST-1)” value [4] was 1.9 nM.

B8: DARPin #59 (designed binder)
chain: MRGSHHHHHHGSDLGKKLLEAARAGQGDEVHILMANGADVNAQDLNGQTPLHLAADIGHLEIVEVLLKHGADVNAQDYAGSTPLRLAAWAGHLEIVEVLLKNGADVNANDYFGYTPLHLAAYFGHLEIVEVLLKHGADVNAQDKFGKTAFDISIDNGNEDLAEILQKLN
With B8 the Kd [3] was 0.171 nM and the “IC50 of inhibition … (WST-1)” value [4] was 2 nM.

B9: DARPin #50 (designed binder)
chain: MRGSHHHHHHGSDLGKKLLEAARAGQDDEVRELLKAGADVNAKDLNGQTPLHLAADIGHLEIVEVLLKAGADVNAKDYAGSTPLRLAAWAGHLEIVEVLLKAGADVNAKDYFGYTPLHLAAYFGHLEIVEVLLKAGADVNAQDKFGKTAFDISIDNGNEDLAEILQKLN
For B9, the IC50 [1] was 0.032 nM, the IC50 [5] was ~0.02 nM and the Kd [3] was 0.115 nM.
